US6673587B1, “Histone deacetylase, and uses therefor” (The Salk Institute for Biological Studies, priority 2000, dated 2004)

Target: T1, GAL DBD-SMRT (RD III+IV), pGBT9-hSMRT (1060-1831) (human, UniProt P04386 1-147; Q9Y618 1060-1831)
T1 construct: domain: GAL DBD;range 1060-1831; Bait of the yeast two-hybrid screen and assays in strain Y190; also called SMRT repression domains III and IV; SMRT RD III and IV
Assay: yeast two-hybrid, growth on -Trp-Leu-His+40 mM 3-AT plates
Description: (Verdel and Khochbin, 1999, supra)). A series of AD-HDAC constructs were generated for interaction assays in yeast. Transformants harboring both plasmids were picked and patched onto nutrient selection plates. Only cells that contain plasmids carrying an interacting partner are able to activate reporter gene HIS3 and therefore are viable in the selection plate -Trp-Leu-His+40 mM 3-AT. […] After three days, two isolated colonies were picked, resuspended in water, and […] were dropped on both -Trp-Leu and -Trp-Leu-His+40 mM 3-AT plates. Pictures were taken after three days.

binding result | Binder
no binding | AD-HDAC3 (deacetylase domain of HDAC3, GAL AD fusion) (enzyme, UniProt O15379 3-316, looked up, not shown: large carriers, domain: deacetylase domain) KTVAYFYDPDVGNFHYGAGHPMKPHRLALTHSLVLHYGLYKKMIVFKPYQASQHDMCRFHSEDYIDFLQRVSPTNMQGFTKSLNAFNVGDDCPVFPGLFEFCSRYTGASLQGATQLNNKICDIAINWAGGLHHAKKFEASGFCYVNDIVIGILELLKYHPRVLYIDIDIHHGDGVQEAFYLTDRVMTVSFHKYGNYFFPGTGDMYEVGAESGRYYCLNVPLRDGIDDQSYKHLFQPVINQVVDFYQPTCIVLQCGADSLGCDRLGCFNLSIRGHGECVEYVKSFNIPLLVLGGGGYTVRNVARCWTYETSLLVE
no binding | AD-HDAC1 (deacetylase domain of HDAC1, GAL AD fusion) (enzyme, UniProt Q13547 9-321, looked up, not shown: large carriers, domain: deacetylase domain) RKVCYYYDGDVGNYYYGQGHPMKPHRIRMTHNLLLNYGLYRKMEIYRPHKANAEEMTKYHSDDYIKFLRSIRPDNMSEYSKQMQRFNVGEDCPVFDGLFEFCQLSTGGSVASAVKLNKQQTDIAVNWAGGLHHAKKSEASGFCYVNDIVLAILELLKYHQRVLYIDIDIHHGDGVEEAFYTTDRVMTVSFHKYGEYFPGTGDLRDIGAGKGKYYAVNYPLRDGIDDESYEAIFKPVMSKVMEMFQPSAVVLQCGSDSLSGDRLGCFNLTIKGHAKCVEFVKSFNLPMLMLGGGGYTIRNVARCWTYETAVALD
